Columns and labels:
[1] = molecular target: ferroportin (human (endogenous in HEK 293 and iPSC-derived ECs)) (UniProt Q9NP59)
[2] = molecular target: ferroportin (human (endogenous in HEK 293 and iPSC-derived ECs)) (UniProt Q9NP59); remark: listed apart in the source
[3] = molecular target: ferroportin (human (endogenous in HEK 293 and iPSC-derived ECs)) (UniProt Q9NP59); remark: listed apart in the source

Sequence of UniProt Q9NP59 (Q9NP59 whole entry): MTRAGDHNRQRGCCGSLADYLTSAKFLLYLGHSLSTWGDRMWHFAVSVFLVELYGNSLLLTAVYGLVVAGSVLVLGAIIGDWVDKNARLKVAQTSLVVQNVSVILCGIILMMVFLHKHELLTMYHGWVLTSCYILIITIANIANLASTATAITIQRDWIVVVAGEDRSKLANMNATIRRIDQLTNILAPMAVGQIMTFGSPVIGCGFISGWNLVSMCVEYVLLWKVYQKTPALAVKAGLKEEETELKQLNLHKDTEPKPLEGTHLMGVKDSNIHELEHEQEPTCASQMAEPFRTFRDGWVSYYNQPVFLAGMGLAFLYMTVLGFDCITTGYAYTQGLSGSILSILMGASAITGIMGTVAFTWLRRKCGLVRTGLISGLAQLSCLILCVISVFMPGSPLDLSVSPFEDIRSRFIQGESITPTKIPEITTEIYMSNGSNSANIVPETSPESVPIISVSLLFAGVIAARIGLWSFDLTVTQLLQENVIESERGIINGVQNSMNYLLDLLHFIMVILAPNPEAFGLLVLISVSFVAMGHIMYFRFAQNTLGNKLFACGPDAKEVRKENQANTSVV

Substance | Fpn protein level in iPSC-derived ECs after 8 h with increasing concentrations of holo-Tf in the basal chamber (immunoblot), from 0.1 μM [1] [%] | Fpn protein level in iPSC-derived ECs with 0.25 μM holo-Tf over time, intervals of 1 h up to 5 h (immunoblot) [2] [%] | membrane Fpn in HEK 293 cells with 0.25 μM holo-Tf, 5-60 min (membrane protein isolation, immunoblot), compared to control [3] [%] | membrane Fpn in HEK 293 cells with 500 nM hepcidin, 5-60 min (membrane protein isolation, immunoblot), compared to holo-Tf treatment [3] [%]
holo-transferrin (iron bound transferrin) (from UniProt P02787 20-698) (natural protein) | 50 | 50 | 20 | 
hepcidin (peptide) |  |  |  | 70

Reference: paper PMC10243088
